{"source": "patent US20040082496", "key": {"[1]": {"system": "T1, Mca-Ala-Pro-(Dnp)Lys-OH (AnaSpec MIPH1)", "T1 sequence": "APK"}, "[2]": {"system": "T2, Mca-Tyr-Val-Ala-Asp-Ala-Pro-(Dnp)Lys-OH (Caspase 1 substrate, Bachem M-2195)", "T2 sequence": "YVADAPK"}, "Neurotensin (1-13)": {"biological_target": "Neurotensin (1-13) (UniProt P30990)"}, "[3]": {"system": "T1, Mca-Ala-Pro-(Dnp)Lys-OH (AnaSpec MIPH1)", "assay": "fluorogenic substrate cleavage by purified ACE-2, microtitre plate"}, "[4]": {"system": "T2, Mca-Tyr-Val-Ala-Asp-Ala-Pro-(Dnp)Lys-OH (Caspase 1 substrate, Bachem M-2195)", "assay": "fluorogenic substrate cleavage by purified ACE-2, microtitre plate"}}}
{"substance": "secreted ACE-2 purified from CHO K1 cell supernatant (expression vector pMD37)", "values": [{"measurement": "hydrolysis followed by mass spectroscopy", "setting": "(Des-Arg^9) Bradykinin", "result": "ACE-2 can hydrolyze des-Arg bradykinin"}, {"measurement": "hydrolysis followed by mass spectroscopy", "setting": "Angiotensin I(1-10)", "result": "When treated with ACE-2, mass spectroscopy data shows that Angiotensin I (1-10) is converted to Angiotensin I (1-9)"}, {"measurement": "kcat/Km", "setting": "[1]", "result": 230000, "unit": "M⁻¹ s⁻¹"}, {"measurement": "hydrolysis followed by mass spectroscopy", "setting": "[2]", "result": "ACE-2 hydrolysed this substance between the P1 proline and P1′ (DNP)Lys"}, {"measurement": "kcat/Km", "setting": "[2]", "result": 42000, "unit": "M⁻¹ s⁻¹"}, {"measurement": "hydrolysis followed by mass spectroscopy", "setting": "Neurotensin (1-13)", "result": "ACE-2 hydrolyzes Neurotensin (1-13) to Neurotensin (1-12)"}, {"measurement": "Km", "setting": "[3]", "result": 340, "unit": "µM"}, {"measurement": "Km", "setting": "[4]", "result": 130, "unit": "µM"}]}
